The Kd is the free concentration of one partner at which half of the binding sites on the other are occupied at equilibrium, for simple one-to-one binding. Read a high Kd as a looser complex. As usually defined, the koff is a measure of how fast the partners let go of each other. Read a high koff as a short-lived complex. In general, kon refers to a measure of how fast the partners come together. A high value points to faster complex formation.

Consider one substance from doi:10.1101/2021.01.28.428610.

This assay addresses Cg1978-C-His (Gip with a C-terminal His tag) (Corynebacterium glutamicum ATCC 13032 (CGP3 prophage)). Briefly: SPR. On the technique in general: Surface plasmon resonance follows binding to a sensor surface in real time, without labels.

The substance “GyrA-N-Strep (C. glutamicum DNA gyrase subunit A with an N-terminal Strep-tag) (from UniProt Q8NUC6 1-856) (natural protein)” yielded a Kd of 5.4 nM, a koff of 0.00092 s⁻¹ and a kon of 97000 M⁻¹ s⁻¹.
